The target of this assay is Pex5L (Chinese hamster, ClPex5L) (Chinese hamster, UniProt Q920N5 1-640). The experiment in a line: pull-down; GST-Pex14 variants (2 μg) on glutathione-Sepharose beads incubated with Pex5L (2 μg) together with EGFP-PTS1 (4 μg) or HA-catalase (4 μg), 2 hr at 4°C, 50 mM Tris-HCl pH 7.5, 0.15 M NaCl, 1% Triton X-100, 10% glycerol; bound fraction by immunoblot, quantified and normalised by GST-Pex14. Conditions: both partners purified. In general terms: In western blotting, separated proteins are transferred to a membrane and probed.

Consider one molecule from publication PMC7498260, “The peroxisome counteracts oxidative stresses by suppressing catalase import via Pex14 phosphorylation” (eLife, 2020).

B1: HA-catalase (human) (enzyme)
chain: MADSRDPASDQMQHWKEQRAAQKADVLTTGAGNPVGDKLNVITVGPRGPLLVQDVVFTDEMAHFDRERIPERVVHAKGAGAFGYFEVTHDITKYSKAKVFEHIGKKTPIAVRFSTVAGESGSADTVRDPRGFAVKFYTEDGNWDLVGNNTPIFFIRDPILFPSFIHSQKRNPQTHLKDPDMVWDFWSLRPESLHQVSFLFSDRGIPDGHRHMNGYGSHTFKLVNANGEAVYCKFHYKTDQGIKNLSVEDAARLSQEDPDYGIRDLFNAIATGKYPSWTFYIQVMTFNQAETFPFNPFDLTKVWPHKDYPLIPVGKLVLNRNPVNYFAEVEQIAFDPSNMPPGIEASPDKMLQGRLFAYPDTHRHRLGPNYLHIPVNCPYRARVANYQRDGPMCMQDNQGGAPNYYPNSFGAPEQQPSALEHSIQYSGEVRRFNTANDDNVTQVRAFYVNVLNEEQRKRLCENIAGHLKDAQIFIQKKAVKNFTEVHPDYGSHIQALLDKYNAEKPKNAIHTFVQSGSHLAAREKANL
notes: catalase, human (HsCatalase); HA-Catalase amplified from pUcD3/HA-HsCatalase (Otera and Fujiki, 2012) and cloned into pGEX6P-1; The forward primer GST-HA-HsCatalase.BglFw starts with ATG GCT TAT CCA TAC GAC, i.e. the HA tag lies at the N-terminus of catalase; also called HA-HsCatalase; source: E. coli DH5α, GST fusion purified with glutathione-Sepharose beads, isolated by cleaving …
As to B1, the binding result is listed as “binds”.
